According to patent US20180111972A1 (Stanford University, published 2018):
Like-named read-outs stand apart in the source and are kept apart here.

Assays:
[1] = biological target: T1, soluble VEGFR2 (Fc or His format not stated for the experiment) (human, UniProt P35968 20-764); assay: yeast surface display, flow cytometry dot plot: soluble receptor bound (FL1) against surface expression (FL2); receptor concentration not printed [Cont.]
T1 construct: extracellular domain

[2] = biological target: T2, soluble PDGFRβ (Fc or His format not stated for the experiment) (human, UniProt P09619 33-532); assay: as above
T2 construct: extracellular domain
T2 sequence (P09619 33-532): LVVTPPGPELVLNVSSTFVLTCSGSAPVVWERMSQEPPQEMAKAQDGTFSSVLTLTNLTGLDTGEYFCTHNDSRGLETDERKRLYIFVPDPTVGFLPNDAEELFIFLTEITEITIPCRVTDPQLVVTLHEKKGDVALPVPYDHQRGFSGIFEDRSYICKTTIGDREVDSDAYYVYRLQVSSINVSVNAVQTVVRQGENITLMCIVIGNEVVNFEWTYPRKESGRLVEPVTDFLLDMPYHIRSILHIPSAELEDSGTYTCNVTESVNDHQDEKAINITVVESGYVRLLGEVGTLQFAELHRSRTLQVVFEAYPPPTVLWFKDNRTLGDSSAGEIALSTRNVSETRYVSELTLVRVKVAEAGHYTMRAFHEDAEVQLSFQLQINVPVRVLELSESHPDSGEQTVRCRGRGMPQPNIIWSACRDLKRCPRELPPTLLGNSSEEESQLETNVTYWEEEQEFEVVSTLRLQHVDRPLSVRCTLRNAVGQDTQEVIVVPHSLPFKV

[3] = biological target: T1, soluble VEGFR2 (Fc or His format not …); assay: yeast surface display, flow cytometry dot plot: soluble receptor bound (FL1) against surface expression (FL2); receptor concentration not given
[4] = biological target: PDGFRβ on DiscoveRx PathHunter U2OS PDGFRβ reporter cells (UniProt P09619 33-1106, limits assumed); assay: cell-based or functional assay
Sequence of PDGFRβ on DiscoveRx PathHunter U2OS PDGFRβ reporter cells (P09619 33-1106 limits assumed): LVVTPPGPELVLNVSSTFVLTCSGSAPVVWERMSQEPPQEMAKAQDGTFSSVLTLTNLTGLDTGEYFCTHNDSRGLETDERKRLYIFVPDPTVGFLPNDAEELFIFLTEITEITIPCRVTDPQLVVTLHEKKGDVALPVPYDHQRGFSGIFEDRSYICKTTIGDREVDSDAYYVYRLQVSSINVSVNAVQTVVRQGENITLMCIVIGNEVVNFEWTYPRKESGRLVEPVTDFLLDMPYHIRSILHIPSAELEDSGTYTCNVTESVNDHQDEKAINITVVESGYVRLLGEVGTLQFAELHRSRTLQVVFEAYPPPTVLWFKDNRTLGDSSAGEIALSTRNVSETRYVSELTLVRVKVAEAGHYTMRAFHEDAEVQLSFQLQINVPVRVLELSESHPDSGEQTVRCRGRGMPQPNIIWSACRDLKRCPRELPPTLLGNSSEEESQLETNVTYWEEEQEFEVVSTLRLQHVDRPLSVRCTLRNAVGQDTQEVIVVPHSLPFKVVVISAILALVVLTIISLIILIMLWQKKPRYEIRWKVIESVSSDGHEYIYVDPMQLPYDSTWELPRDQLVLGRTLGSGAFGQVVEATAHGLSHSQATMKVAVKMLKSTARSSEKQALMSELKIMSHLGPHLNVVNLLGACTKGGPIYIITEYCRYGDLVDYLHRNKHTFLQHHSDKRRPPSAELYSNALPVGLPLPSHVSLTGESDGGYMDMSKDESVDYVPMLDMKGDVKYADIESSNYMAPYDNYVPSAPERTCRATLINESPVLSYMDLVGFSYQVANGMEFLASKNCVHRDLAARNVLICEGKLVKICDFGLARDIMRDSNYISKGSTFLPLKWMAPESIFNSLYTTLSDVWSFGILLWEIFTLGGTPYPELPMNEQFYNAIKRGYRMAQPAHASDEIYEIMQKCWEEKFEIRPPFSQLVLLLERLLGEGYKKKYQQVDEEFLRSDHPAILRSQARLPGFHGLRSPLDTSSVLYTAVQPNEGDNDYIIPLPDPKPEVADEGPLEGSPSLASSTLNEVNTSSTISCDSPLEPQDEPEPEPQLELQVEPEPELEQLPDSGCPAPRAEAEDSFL

[5] = biological target: T3, human VEGFR on human umbilical vein endothelial cells (HUVECs) (human, UniProt P35968 20-1356); assay: flow cytometry on HUVECs, soluble ligand titrated 3 h at 4 C, anti-FLAG-PE
T3 construct: The phosphorylation blots on these cells detect VEGFR2
T3 sequence (P35968 20-1356 limits assumed): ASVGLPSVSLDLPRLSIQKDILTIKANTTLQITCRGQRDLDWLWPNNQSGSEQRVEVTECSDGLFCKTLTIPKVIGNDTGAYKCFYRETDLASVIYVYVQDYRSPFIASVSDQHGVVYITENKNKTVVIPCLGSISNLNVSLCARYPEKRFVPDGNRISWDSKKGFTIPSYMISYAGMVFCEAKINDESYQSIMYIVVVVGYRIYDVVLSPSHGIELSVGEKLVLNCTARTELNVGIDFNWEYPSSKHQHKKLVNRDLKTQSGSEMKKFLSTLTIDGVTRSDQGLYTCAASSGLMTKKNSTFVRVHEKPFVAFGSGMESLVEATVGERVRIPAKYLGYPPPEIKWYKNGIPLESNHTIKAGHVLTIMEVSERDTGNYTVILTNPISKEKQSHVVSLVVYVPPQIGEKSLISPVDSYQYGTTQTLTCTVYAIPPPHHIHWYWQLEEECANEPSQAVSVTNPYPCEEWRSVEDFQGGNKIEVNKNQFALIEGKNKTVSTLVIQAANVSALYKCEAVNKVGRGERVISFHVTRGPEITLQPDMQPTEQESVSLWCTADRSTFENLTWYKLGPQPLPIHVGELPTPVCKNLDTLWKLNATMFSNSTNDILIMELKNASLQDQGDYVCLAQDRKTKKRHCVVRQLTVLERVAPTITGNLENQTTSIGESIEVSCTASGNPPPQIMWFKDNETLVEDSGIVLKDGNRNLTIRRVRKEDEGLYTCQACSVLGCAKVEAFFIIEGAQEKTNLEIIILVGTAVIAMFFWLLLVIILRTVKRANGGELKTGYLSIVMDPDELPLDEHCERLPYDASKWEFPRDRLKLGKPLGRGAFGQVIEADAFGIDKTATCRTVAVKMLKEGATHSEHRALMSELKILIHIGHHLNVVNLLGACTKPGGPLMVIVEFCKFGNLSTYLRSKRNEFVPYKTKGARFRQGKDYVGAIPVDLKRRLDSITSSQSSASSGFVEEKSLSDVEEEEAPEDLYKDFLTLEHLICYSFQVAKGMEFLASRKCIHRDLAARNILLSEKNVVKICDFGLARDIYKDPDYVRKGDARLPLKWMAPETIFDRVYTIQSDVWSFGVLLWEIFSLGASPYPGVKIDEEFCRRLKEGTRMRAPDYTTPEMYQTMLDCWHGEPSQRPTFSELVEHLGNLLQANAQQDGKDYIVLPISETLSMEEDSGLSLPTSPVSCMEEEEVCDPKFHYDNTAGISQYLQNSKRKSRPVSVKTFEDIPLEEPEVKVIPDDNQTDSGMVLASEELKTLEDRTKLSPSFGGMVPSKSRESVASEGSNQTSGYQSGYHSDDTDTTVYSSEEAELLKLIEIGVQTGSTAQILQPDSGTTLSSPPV
Experimental: (§1) To test binding to VEGFR, human umbilical vein endothelial cells (HUVECs) and murine angiosarcoma endothelial cells (SVR) were used.
(§2) Cell-binding assay. Varying concentrations of scPDGF, scVEGF, and PDGF/VEGF ligands were incubated with 25,000 PDGFR- or VEGFR-expressing cells in binding buffer (20 mM Tris pH 7.5 with 1 mM MgCl₂, 1 mM MnCl₂, 2 mM CaCl₂, 100 mM NaCl, and 1 mg/ml BSA) for 5 hr (BJ-5ta, NIH/3T3) or 3 hr (HUVEC, SVR) at 4° C. Cells were washed and pelleted, then incubated with 1:100 R-PE-conjugated anti-FLAG antibody (Prozyme) for 15 min on ice. Cells were washed, pelleted, and resuspended in binding buffer immediately before analysis by flow cytometry using BD Accuri C6. Flow cytometry data were analyzed using BD Accuri C6 software, and statistical analysis was performed using GraphPad Prism 6.

[6] = biological target: T3, human VEGFR on human umbilical vein …; assay: flow cytometry titration of the soluble FLAG-tagged protein on HUVECs, anti-FLAG detection
Experimental: as §1, §2

[7] = biological target: T4, PDGFRβ-His (residues 1-314 of PDGFR-β with C-terminal hexahistidine tag) (human, UniProt P09619 33-314); assay: yeast surface display titration, flow cytometry; PDGFRβ-His (monovalent)
T4 construct: range 1-314; Monovalent form, expressed in FreeStyle 293-F cells; also called PDGRβ-His; PDGFR-His
T4 sequence (P09619 other isoform, or with tags, fused parts or gaps limits assumed, form in doubt): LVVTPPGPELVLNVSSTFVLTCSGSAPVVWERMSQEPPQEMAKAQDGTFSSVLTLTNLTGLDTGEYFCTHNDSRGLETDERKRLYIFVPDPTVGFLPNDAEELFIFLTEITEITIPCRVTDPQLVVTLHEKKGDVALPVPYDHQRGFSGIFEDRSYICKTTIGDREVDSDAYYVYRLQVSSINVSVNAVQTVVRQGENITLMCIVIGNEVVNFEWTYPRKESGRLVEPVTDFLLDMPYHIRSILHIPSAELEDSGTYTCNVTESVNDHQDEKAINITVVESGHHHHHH
Experimental: We tested the monovalent version of PDGFR (PDGRβ-His) to remove any avidity effects that may affect the measurements.
(§3) Cells were incubated in large enough volumes to avoid ligand depletion and appropriate time to reach equilibrium. During the last hour of incubation, yeast were incubated with 1:250 dilution of chicken anti-c-Myc (Invitrogen) in PBSA. […] Yeast were washed, pelleted, and resuspended in PBSA immediately before analysis by flow cytometry using BD FACSCalibur or BD Accuri C6. Flow cytometry data were analyzed using FlowJo (v7.6.1 and v10, Treestar) or BD Accuri C6 software. Statistical analysis was performed using GraphPad Prism 6.

[8] = biological target: T5, PDGFRβ-Fc (residues 1-314 of PDGFR-β fused to the Fc region of mouse IgG2a) (human; mouse, UniProt P09619 33-314); assay: yeast surface display titration, flow cytometry; PDGFRβ-Fc (bivalent)
T5 construct: range 1-314; Expressed in FreeStyle 293-F cells; also called PDGRβ-Fc; PDGFR-Fc; not shown: Fc region of mouse IgG2a
T5 sequence (P09619 33-314 limits assumed, form in doubt): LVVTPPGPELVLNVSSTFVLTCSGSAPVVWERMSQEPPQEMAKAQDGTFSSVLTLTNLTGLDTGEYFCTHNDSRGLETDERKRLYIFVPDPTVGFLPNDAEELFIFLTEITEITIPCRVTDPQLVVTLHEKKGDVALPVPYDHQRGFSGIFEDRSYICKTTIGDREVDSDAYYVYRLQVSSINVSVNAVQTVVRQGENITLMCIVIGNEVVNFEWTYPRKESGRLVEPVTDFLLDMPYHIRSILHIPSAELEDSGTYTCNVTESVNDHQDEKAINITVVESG
Experimental: as §3

[9] = biological target: T2, soluble PDGFRβ (Fc or His format not …); assay: yeast surface display, flow cytometry titration of soluble receptor; panel 'PDGFR binding', Fc or His form not given
[10] = biological target: T2, soluble PDGFRβ (Fc or His format not …); assay: yeast surface display titration; table under the panel 'PDGFR binding', Fc or His form not given
[11] = biological target: T4, PDGFRβ-His (residues 1-314 of PDGFR-β …); assay: yeast surface display titration, flow cytometry
Experimental: as §3

[12] = biological target: T6, VEGFR2-His (residues 1-764 of VEGFR2, Ig-like domains 1-7, with hexahistidine tag) (human, UniProt P35968 20-764); assay: yeast surface display titration, flow cytometry
T6 construct: range 1-764; Monomeric form, expressed in FreeStyle 293-F cells; also called VEGFR-His
T6 sequence (P35968 other isoform, or with tags, fused parts or gaps limits assumed, form in doubt): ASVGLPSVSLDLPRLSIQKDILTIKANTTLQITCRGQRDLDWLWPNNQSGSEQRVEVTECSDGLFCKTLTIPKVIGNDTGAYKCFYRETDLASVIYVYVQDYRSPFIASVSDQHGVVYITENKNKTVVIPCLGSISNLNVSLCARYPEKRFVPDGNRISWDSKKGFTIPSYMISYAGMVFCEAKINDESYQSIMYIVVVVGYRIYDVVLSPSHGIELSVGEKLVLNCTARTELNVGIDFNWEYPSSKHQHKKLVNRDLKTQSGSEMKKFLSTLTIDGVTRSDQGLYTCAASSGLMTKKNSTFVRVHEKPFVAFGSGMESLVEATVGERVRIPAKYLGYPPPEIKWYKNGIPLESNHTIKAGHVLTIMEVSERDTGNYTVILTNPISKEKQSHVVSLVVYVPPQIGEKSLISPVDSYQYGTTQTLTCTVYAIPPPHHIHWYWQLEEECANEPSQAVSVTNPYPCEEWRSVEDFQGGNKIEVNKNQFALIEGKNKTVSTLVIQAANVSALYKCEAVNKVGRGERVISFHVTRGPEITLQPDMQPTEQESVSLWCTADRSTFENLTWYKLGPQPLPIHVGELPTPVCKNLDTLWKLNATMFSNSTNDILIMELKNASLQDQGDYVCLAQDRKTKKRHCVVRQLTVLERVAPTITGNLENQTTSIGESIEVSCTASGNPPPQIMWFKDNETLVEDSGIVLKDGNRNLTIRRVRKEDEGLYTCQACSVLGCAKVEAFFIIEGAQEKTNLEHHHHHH
Experimental: as §3

[13] = biological target: T4, PDGFRβ-His (residues 1-314 of PDGFR-β …); assay: yeast surface display, flow cytometry titration of PDGFRβ-His
Experimental: as §3

[14] = biological target: T6, VEGFR2-His (residues 1-764 of VEGFR2, …); assay: yeast surface display, flow cytometry equilibrium titration of VEGFR2-His, normalized fluorescence
Experimental: as §3

[15] = biological target: T4, PDGFRβ-His (residues 1-314 of PDGFR-β …); assay: yeast surface display titration, flow cytometry; remark: listed apart in the source
Experimental: as §3

[16] = biological target: T6, VEGFR2-His (residues 1-764 of VEGFR2, …); assay: yeast surface display titration, flow cytometry; remark: listed apart in the source
Experimental: as §3

[17] = biological target: T5, PDGFRβ-Fc (residues 1-314 of PDGFR-β …); assay: yeast surface display, flow cytometry titration of PDGFRβ-Fc
Experimental: as §3

[18] = biological target: T7, VEGFR2-Fc (R&D Systems) (human, UniProt P35968 20-764); assay: yeast surface display, flow cytometry titration of VEGFR2-Fc
T7 construct: extracellular domain; Bought reagent; also called VEGFR-Fc; not shown: Fc part, detected with anti-human-IgG (Fc specific)
T7 sequence (P35968 20-764): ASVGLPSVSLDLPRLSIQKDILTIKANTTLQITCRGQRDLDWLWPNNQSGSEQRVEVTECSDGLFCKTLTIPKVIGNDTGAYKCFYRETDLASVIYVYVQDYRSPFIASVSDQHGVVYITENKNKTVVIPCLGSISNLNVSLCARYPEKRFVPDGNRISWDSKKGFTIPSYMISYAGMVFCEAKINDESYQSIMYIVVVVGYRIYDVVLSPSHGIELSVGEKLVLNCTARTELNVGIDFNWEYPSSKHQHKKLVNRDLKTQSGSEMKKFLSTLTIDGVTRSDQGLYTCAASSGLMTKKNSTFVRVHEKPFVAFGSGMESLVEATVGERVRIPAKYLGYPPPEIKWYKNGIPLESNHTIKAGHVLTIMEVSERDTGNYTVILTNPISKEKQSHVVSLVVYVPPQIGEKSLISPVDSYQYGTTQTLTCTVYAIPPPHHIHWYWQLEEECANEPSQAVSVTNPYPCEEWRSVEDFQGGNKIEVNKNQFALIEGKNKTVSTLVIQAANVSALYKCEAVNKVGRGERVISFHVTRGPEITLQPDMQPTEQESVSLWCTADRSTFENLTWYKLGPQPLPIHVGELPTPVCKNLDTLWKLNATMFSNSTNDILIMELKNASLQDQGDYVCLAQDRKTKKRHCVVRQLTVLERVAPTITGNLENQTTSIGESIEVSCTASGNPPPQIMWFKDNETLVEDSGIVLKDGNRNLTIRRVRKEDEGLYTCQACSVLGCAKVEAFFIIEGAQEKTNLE
Experimental: as §3

T1 sequence (P35968 20-764): as above

B1: PV3 PDGF/VEGF hybrid construct, yeast-displayed (designed binder)
chain: IAEPAMIAECKTRTEVVDIFQEYPDEIEYIFKPSCVPLMRCSGCCNNRNVQCRPTEESNITMQIMRIKPHQGQHIGEMSFLQHLACKCETVAAGSTSGSGKSSEGKGEVVKFMDVYQRSYCHPIETLFEISRRLIDRTNANFLVWPPCVEVQRCGGCCNDEGLECVPTQVQLRPVQVRKIEIVRKKPIFKKATVTLEDHNKCECRPKKD
notes: only PV1
[1]
  binding result: no binding
[2]
  binding result: no binding

B2: PV7 PDGF/VEGF hybrid construct, yeast-displayed (designed binder)
chain: IAEPAMIAECKTRETLVDIFQEYPDEIEYIFKPSCVPLMRCSGCCNNRNVQCRPTEESNITMQIMRIKPHQGQHIGEMSFLQHNKCKCETVAAGSTSGSGKSSEGKGEVVKFMDVYQRSYCHPITEVFEISRRLIDRTNANFLVWPPCVEVQRCGGCCNDEGLECVPTQVQLRPVQVRKIEIVRKKPIFKKATVTLEDHLACECRPKKD
notes: the text names only PV6
[3]
  binding result: binds

B3: PV8 PDGF/VEGF hybrid construct, yeast-displayed (designed binder)
chain: IAEPAMIAECKTIETLVDIFQEYPDEIEYIFKPSCVPLMRCSGCCNNRNVQCRPTEESNITMQIMRIKPHQGQHIGEMSFLQHLACKCETVAAGSTSGSGKSSEGKGEVVKFMDVYQRSYCHPRTEVFEISRRLIDRTNANFLVWPPCVEVQRCGGCCNDEGLECVPTQVQLRPVQVRKIEIVRKKPIFKKATVTLEDHNKCECRPKKD
notes: the text names only PV6
[3]
  binding result: binds

B4: PV4 PDGF/VEGF hybrid construct, yeast-displayed (designed binder)
chain: IAEPAMIAECKTRTEVFDIFQEYPDEIEYIFKPSCVPLMRCSGCCNNRNVQCRPTEESNITMQIMRIKPHQGQHIGEMSFLQHLACKCETVAAGSTSGSGKSSEGKGEVVKFMDVYQRSYCHPIETLVEISRRLIDRTNANFLVWPPCVEVQRCGGCCNDEGLECVPTQVQLRPVQVRKIEIVRKKPIFKKATVTLEDHNKCECRPKKD
notes: only PV1
[1]
  binding result: no binding
[2]
  binding result: no binding

B5: PV5 PDGF/VEGF hybrid construct, yeast-displayed (designed binder)
chain: IAEPAMIAECKTRTEVFEIFQEYPDEIEYIFKPSCVPLMRCSGCCNNRNVQCRPTEESNITMQIMRIKPHQGQHIGEMSFLQHLACKCETVAAGSTSGSGKSSEGKGEVVKFMDVYQRSYCHPIETLVDISRRLIDRTNANFLVWPPCVEVQRCGGCCNDEGLECVPTQVQLRPVQVRKIEIVRKKPIFKKATVTLEDHNKCECRPKKD
notes: only PV1
[1]
  binding result: no binding
[2]
  binding result: no binding

B6: PVAM-S (PV R32A), soluble, FLAG and hexahistidine tags (designed binder)
chain: DYKDDDDKIAEPAMIAECHPIETLVDILQEYPDEIGYIFKPSCVPLMRCGGCCNNRNVQCRPTEESNITMQIMRIKPHRGQHIGEMSFLQHNKCRCETVAAGSTSGSGKSSEGKGEVVKFMDVYQRSYCKTRTEVFEISRRLIDATNANFLVWPPCVEVQRCSGCCNHEGLECVPTQVQLRPVQVRKIEFVRKKPIFKKATVTLEDHLACECRPKKDHHHHHH
notes: Secreted from S. cerevisiae YVH10 and treated with Endo Hf
[4]
  IC50 of inhibition of stimulation by 0.5 nM PDGF-BB, PathHunter PDGFRβ reporter cells: 1.4 nM
[5]
  Kd: 0.53 nM
[6]
  EC50 (read off the curve): ~0.7 nM

B7: PV6 PDGF/VEGF chimera, yeast-displayed (designed binder)
chain: IAEPAMIAECHPIETLVDIFQEYPDEIEYIFKPSCVPLMRCGGCCNNRNVQCRPTEESNITMQIMRIKPHQGQHIGEMSFLQHNKCKCETVAAGSTSGSGKSSEGKGEVVKFMDVYQRSYCKTRTEVFEISRRLIDRTNANFLVWPPCVEVQRCSGCCNDEGLECVPTQVQLRPVQVRKIEIVRKKPIFKKATVTLEDHLACKCRPKKD
[7]
  Kd: 140 nM
[8]
  Kd: 0.099 nM
[9]
  EC50 (read off the curve): ~100 nM
[10]
  Kd: 140 nM
[11]
  Kd: 270 nM
[12]
  Kd: 230 nM
[13]
  EC50 (read off the curve): ~100 nM

B8: PVAM-S (PV R32A), yeast-displayed (designed binder)
chain: IAEPAMIAECHPIETLVDILQEYPDEIGYIFKPSCVPLMRCGGCCNNRNVQCRPTEESNITMQIMRIKPHRGQHIGEMSFLQHNKCRCETVAAGSTSGSGKSSEGKGEVVKFMDVYQRSYCKTRTEVFEISRRLIDATNANFLVWPPCVEVQRCSGCCNHEGLECVPTQVQLRPVQVRKIEFVRKKPIFKKATVTLEDHLACECRPKKD
notes: PVAM with R137A (R32A in PDGF-B numbering); also called R137A variant
[14]
  EC50 (read off the curve): ~1 nM
[15]
  Kd: 0.34 nM
[16]
  Kd: 1 nM

B9: PV6 K87R variant, yeast-displayed (designed binder)
chain: IAEPAMIAECHPIETLVDIFQEYPDEIEYIFKPSCVPLMRCGGCCNNRNVQCRPTEESNITMQIMRIKPHQGQHIGEMSFLQHNKCRCETVAAGSTSGSGKSSEGKGEVVKFMDVYQRSYCKTRTEVFEISRRLIDRTNANFLVWPPCVEVQRCSGCCNDEGLECVPTQVQLRPVQVRKIEIVRKKPIFKKATVTLEDHLACKCRPKKD
notes: Clone from the PDGFR sorts of the error-prone library made from PV6; also called PV K87R
[7]
  Kd: 6.4 nM
[17]
  EC50 (read off the curve): ~0.05 nM
[8]
  Kd: 0.049 nM
[13]
  EC50 (read off the curve): ~6 nM

B10: V3-3, yeast-displayed variant from the Vshuf library (designed binder)
chain: IAEPAVIAECHPIETLVDILQEYPDEIGYIFKPSCVPLMRCGGCCNNRNVQCRPTEESNITMQIMRIKPHRGQHIGEMSFLQHNKCKCETVAAGSTSGSGKSSEGKGEVVKFMDVYQRSYCKTRTEVFEISRRLIDRTNANFLVWPPCVEVQRCSGCCNHEGLECVPTQVQLRPVQVRKIEIVRKKPIFKKATVTLEDHLACECRPKKD
[18]
  binding result: binds

B11: PV6 I182F variant, yeast-displayed (designed binder)
chain: IAEPAMIAECHPIETLVDIFQEYPDEIEYIFKPSCVPLMRCGGCCNNRNVQCRPTEESNITMQIMRIKPHQGQHIGEMSFLQHNKCKCETVAAGSTSGSGKSSEGKGEVVKFMDVYQRSYCKTRTEVFEISRRLIDRTNANFLVWPPCVEVQRCSGCCNDEGLECVPTQVQLRPVQVRKIEFVRKKPIFKKATVTLEDHLACECRPKKD
notes: Clone from the PDGFR sorts of the error-prone library made from PV6; also called PV I182F
[7]
  Kd: 2.5 nM
[17]
  EC50 (read off the curve): ~0.07 nM
[8]
  Kd: 0.067 nM
[13]
  EC50 (read off the curve): ~3 nM
